Here are results for one protein from publication PMC2668204 (Cellular signalling, 2009).

For this data set, the target named is venus-labeled Gβγ dimers (venus155–239-Gβ1 with venus1–155-Gγ2) (human, UniProt P62873 1-340; P59768 1-71). Description: FRET or BRET. A general note: BRET reads energy transfer from a luciferase to a nearby fluorophore.

B1: masGRK3ct-Rluc8 (domain or fragment)
chain: MGSSKSKTSNSGIKLLDCDQELYKNFPLVISERWQQEVAETVYEAVNADTDKIEARKRAKNKQLGHEEDYALGRDCIVHGYMLKLGNPFLTQWQRRYFYLFPNRLEWRGEGESRQSLLTMEQIVSVEETQIKDKKCILLRIKGGKQFVLQCESDPEFVQWKKELTETFMEAQRLLRRAPKFLNKSRSAVVELSKPPLCHRNSNGL
modifications: myristoylation directed by the N-terminal mas peptide
In the case of B1, the “adenosine-induced BRET increase (highest relative expression of C-TM-Gα i1)” value was determined as 0.025 ± 0.003 and the “adenosine-induced BRET increase (lowest relative expression of C-TM-Gα i1)” value stood at 0.05 ± 0.007.
